Experiments:
[1] = test system: cyclic AMP dependent protein kinase catalytic subunit; conditions: serine at position 543; alkaline phosphatase restored activity; cited from earlier work
[2] = test system: catalytic subunit of protein kinase A; conditions: reversed by phosphatase; cited from earlier work
dopamine D2 receptor = biological target: T1, dopamine D2 receptor (Homo sapiens, UniProt P14416); assay: Inhibitory response to dopamine with or without forskolin in HEK293 cells stably expressing D2 (Gi pathway); assay type: cell-based; conditions: relative to biosensor with GSSGGSGGSGGG linker
T1 construct: expressed in transfected cells
From the text: (§1) A mutant cAMP biosensor (termed L9; SEQ ID NO: 104; SEQ ID NO: 105) having a mutant RIIβB binding site (substitutions E284A and V316I) and a modified linker sequence (GSIAGCGDAGEG, SEQ ID NO: 57; SEQ ID NO: 128) was screened for increased light output and increased fold response when expressed in mammalian cells (primary sequence Met-(Photinus pyralis luciferase residues 359-544)-(GSIAGCGDAGEG (SEQ ID NO: 57; SEQ ID NO: SEQ ID NO: 128))-(RIIβB E284A, V316I)-(Photinus pyralis luciferase residues 4-355)-Val). For a stimulatory response, transient expression in HEK293 cells was followed by treatment with 10 μM isoproterenol (agonist of the endogenous beta2-adrenergic receptor). For an inhibitory response, transient expression in HEK293 cells that stably express the dopamine D2 receptor was followed by simultaneous treatment with dopamine in the presence or absence of forskolin

[3] = biological target: T2, endogenous beta2-adrenergic receptor (Homo sapiens, UniProt P07550); assay: Stimulatory response to isoproterenol in HEK293 cells (Gs pathway); assay type: cell-based; conditions: 10 μM isoproterenol, relative to biosensor with GSSGGSGGSGGG linker
T2 construct: agonist of the endogenous beta2-adrenergic receptor; endogenous in cells; host or cells: HEK293
From the text: as §1

GPR41 [4] = assay: Sodium proprionate CRC with biosensor variants in HEK293 cells stably expressing GPR41; assay type: cell-based; conditions: ratio of RLU of FSK treated well to untreated well
Summary of the method: (§2)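 GPR41-stable HEK293 cells were transiently transfected with a cAMP biosensor variant, then after 24 h equilibrated 2 h at room temperature with 5 mM EF-luc in CO2-independent medium with 10% FBS. Baseline luminescence was read, a sodium propionate concentration series added, and luminescence read after 30 min. EC50 and fold response were derived, with or without FSK.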

GPR41 [5] = biological target: T3, GPR41 (Homo sapiens, UniProt O14843); assay: as above; assay type: cell-based
T3 sequence (O14843 1-346): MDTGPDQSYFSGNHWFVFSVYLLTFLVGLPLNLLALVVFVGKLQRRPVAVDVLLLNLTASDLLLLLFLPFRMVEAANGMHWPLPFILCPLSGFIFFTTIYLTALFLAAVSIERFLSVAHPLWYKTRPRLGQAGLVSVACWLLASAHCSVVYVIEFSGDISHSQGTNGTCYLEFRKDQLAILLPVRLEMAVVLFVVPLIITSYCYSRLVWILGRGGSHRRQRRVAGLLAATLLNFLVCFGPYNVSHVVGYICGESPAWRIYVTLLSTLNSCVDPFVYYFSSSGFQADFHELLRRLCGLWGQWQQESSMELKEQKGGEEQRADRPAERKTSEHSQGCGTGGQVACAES
Summary of the method: as §2

T1 sequence (P14416 whole entry, species assumed): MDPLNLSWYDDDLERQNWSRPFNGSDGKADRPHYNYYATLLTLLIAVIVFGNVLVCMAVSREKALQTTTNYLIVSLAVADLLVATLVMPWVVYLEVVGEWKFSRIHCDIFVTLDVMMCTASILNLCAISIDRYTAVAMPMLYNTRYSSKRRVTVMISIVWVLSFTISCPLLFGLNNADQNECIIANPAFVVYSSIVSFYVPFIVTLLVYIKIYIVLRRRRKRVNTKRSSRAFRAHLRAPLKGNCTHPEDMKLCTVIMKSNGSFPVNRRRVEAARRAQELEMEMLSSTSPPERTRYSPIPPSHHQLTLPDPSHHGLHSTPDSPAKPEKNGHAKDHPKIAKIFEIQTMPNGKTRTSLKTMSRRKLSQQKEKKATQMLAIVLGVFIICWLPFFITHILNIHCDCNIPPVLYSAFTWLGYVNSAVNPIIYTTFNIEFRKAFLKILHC

## LRRASLG
[1]
  reduction of activity on addition of kinase catalytic subunit: 30%

## RRFS: Photinus pyralis luciferase with valine 217 mutated to arginine to generate the site RRFS (Sala-Newby et al.)
[2]
  decrease of activity when phosphorylated: up to 80%

B1: L9: cAMP biosensor, RIIβB E284A and V316I, linker GSIAGCGDAGEG; SEQ ID NO:104, 105 (protein)
chain: MPGAVGKVVPFFEAKVVDLDTGKTLGVNQRGELCVRGPMIMSGYVNNPEATNALIDKDGWLHSGDIAYWDEDEHFFIVDRLKSLIKYKGYQVAPAELESILLQHPNIFDAGVAGLPDDDAGELPAAVVVLEHGKTMTEKEIVDYVASQVTTAKKLRGGVVFVDEVPKGLTGKLDARKIREILIKAKKGSIAGCGDAGEGMYESFIESLPFLKSLEFSARLKVVDVIGTKVYNDGEQIIAQGDSADSFFIIESGEVKITMKRKGKSEVEENGAVEIARCSRGQYFGELALVTNKPRAASAHAIGTVKCLAMDVQAFERLLGPCMEIMKRNIATYEEQLVALFGTNMDIVAKNIKKGPAPFYPLEDGTAGEQLHKAMKRYALVPGTIAFTDAHIEVDITYAEYFEMSVRLAEAMKRYGLNTNHRIVVCSENSLQFFMPVLGALFIGVAVAPANDIYNERELLNSMGISQPTVVFVSKKGLQKILNVQKKLPIIQKIIIMDSKTDYQGFQSMYTFVTSHLPPGFNEYDFVPESFDRDKTIALIMNSSGSTGLPKGVALPHRTACVRFSHARDPIFGNQIIPDTAILSVVPFHHGFGMFTTLGYLICGFRVVLMYRFEEELFLRSLQDYKIQSALLVPTLFSFFAKSTLIDKYDLSNLHEIASGGAPLSKEVGEAVAKRFHLPGIRQGYGLTETTSAILITPEGV
Dopamine D2 receptor
  fold response for the Gi pathway: improved fold response
[3]
  fold response to isoproterenol induction of the Gs pathway: improved fold response
GPR41 [4]
  Fold Signal Change: 40.9 fold
GPR41 [5]; with FSK 1 μM
  Fold Response Na proprionate + FSK(1 μM): 2.60 fold
GPR41 [5]; without FSK, ratio of induced to uninduced signal
  Fold Response Na proprionate: 2.73 fold
